Data published in publication PMC12319226 (Frontiers in Bioinformatics, 2025).
Substitutions are numbered along the chain they refer to.

T1: fHbp m002421 (Neisseria meningitidis, designed fHbp …, point mutant)
T1 chain: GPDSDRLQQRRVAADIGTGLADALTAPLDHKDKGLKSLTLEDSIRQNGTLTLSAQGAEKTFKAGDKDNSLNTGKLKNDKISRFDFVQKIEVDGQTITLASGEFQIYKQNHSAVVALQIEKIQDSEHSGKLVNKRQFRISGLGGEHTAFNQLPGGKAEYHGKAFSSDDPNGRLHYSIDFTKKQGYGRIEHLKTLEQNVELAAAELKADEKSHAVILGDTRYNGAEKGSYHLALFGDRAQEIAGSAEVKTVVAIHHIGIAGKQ

T2: fHbp m001932 (Neisseria meningitidis; fHbp …, chimera)
T2 chain: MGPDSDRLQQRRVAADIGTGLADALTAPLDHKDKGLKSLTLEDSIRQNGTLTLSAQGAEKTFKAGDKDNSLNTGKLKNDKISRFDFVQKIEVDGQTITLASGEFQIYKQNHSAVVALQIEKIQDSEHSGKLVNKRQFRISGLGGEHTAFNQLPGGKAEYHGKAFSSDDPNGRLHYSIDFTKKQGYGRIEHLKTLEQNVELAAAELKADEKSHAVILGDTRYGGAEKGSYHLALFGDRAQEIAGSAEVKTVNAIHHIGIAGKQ

T3: fHbp m002335 (Neisseria meningitidis; fHbp …, chimera)
T3 chain: T2 chain with G222N, G223S, A252G

T4: fHbp m002252 (Neisseria meningitidis; fHbp …, chimera)
T4 chain: T2 chain with G222N, G223Q, N251E, A252S

T5: fHbp m001691 (Neisseria meningitidis; fHbp …, point mutant)
T5 chain: T2 chain with Y221L, G222N, N251V, A252G

T6: fHbp m002416 (Neisseria meningitidis, designed fHbp …, chimera)
T6 construct: also called fHbp 2,416; Round 2 best mutant
T6 chain: T1 chain with V250N, A251G

T7: fHbp m002420 (Neisseria meningitidis, designed fHbp …, chimera)
T7 chain: T1 chain with A251S

T8: fHbp m001929 (Neisseria meningitidis; fHbp …, chimera)
T8 chain: T2 chain with N251E

T9: fHbp m001935 (Neisseria meningitidis; fHbp …, chimera)
T9 chain: T2 chain with N251V

B1: chimeric antibody h12C1 (antibody, V domains shown)
VH: QVQLQESGPELVKPGASVKISCKASGYSFSDYNMSWVKQSNGKSLEWIGIIDPKYGTINYNQKFKGKATLTVDQASSTAYMQLNSLTSEDSAVYYCVRDYYGSSYFDYWGQGTTLTVSS
VL: DIVLTQSPSSIYASLGERVTLTCKASQDIHNYLNWFQQKPGKSPKTLIYRANRLVDGVPSRFSGGGSGQDYSLTISSLEFEDIGIYYCLQYDEFPPTFGGGTRLEIK
notes: also called humanized 12C1; source: Expi293, purified (MabSelect SuRe, SEC); copies: 2 + 2
B2: mAb 1E6 (human) (antibody, V domains shown)
VH: EVQLVQSGAEVKKPGSSVKVSCKASGGTVIDYPITWVRQAPGQGLEWVGGFVPLFRTSNYGQKFQGRVTITADKSTSTASMELNSLTSEDTAIYYCARGDTAMGPFDYWGQGTLVTVSS
VL: SYVLTQPPSLSVAPGKTATLTCGGNNIAGKTVHWYQQRPGQAPVLVISYDSDRPSGIPERFSGSNSANTATLTISRVEAGDEADYYCQVWDRNSDHWVFGGGTKLTVL
notes: source: Expi293, purified (MabSelect SuRe, SEC); copies: 2 + 2
B3: mAb 4B3 (human) (antibody, V domains shown)
VH: QVQLVQSGGGLVKPGGSLRLSCAASGFPFSSYYMSWIRQAPGKGLEWVSDINNSGNVKEYADFVKGRLTISRDNVKNSMYLHMNSLRVEDTAVYYCARNRGRFDVWGQGTLVTVSA
VL: EIVMTQSPGTLSLSPGETATLSCRASQMISSPFLAWYQQRRGQAPRLLIYGASTRATDTPDRFRGSGSGTDFILTISRLEPEDFAVYYCQYYDDSPFTFGQGTKLEIK
notes: also called 4B3-2; source: Expi293, purified (MabSelect SuRe, SEC); copies: 2 + 2
B4: chimeric antibody hJAR5 (antibody, V domains shown)
VH: QVQMQQPGAELVKPGASVKLSCKASGYTFISYWMHWVKQRPGRGLEWIGRIAPDTGIIYYNEKFKNKATLTVDTPSSTAYMQLNSLTSEDSAVYYCARYLKYDGSTYRFDYWGQGTTLTVSS
VL: DIVMTQAAPSVPVTPGESVSISCRSSKSLLHSNGNTYLFWFLQRPGQSPQLLIYRMSNLASGVPDRFSGSGSGTSFTLRISRVEAEDVGVYYCMQHLEYPYTFGGGTKLEIK
notes: also called hJAR5-2; humanized JAR5; source: Expi293, purified (MabSelect SuRe, SEC); copies: 2 + 2

Molecular target: T1, fHbp m002421
Experiment: BLI
Details: both partners purified

Binder | Kd | koff | kon
B1 | 33.8 nM | 0.00845 s⁻¹ | 250000 ± 2560 M⁻¹ s⁻¹
B2 | 0.131 nM | 5.56e-05 s⁻¹ | 424400 ± 3050 M⁻¹ s⁻¹
B3 | 1.25 nM | 0.00101 s⁻¹ | 803900 ± 3510 M⁻¹ s⁻¹
B4 | 0.193 nM |  | 

Molecular target: T2, fHbp m001932
Experiment: BLI
Details: both partners purified

Binder | Kd | koff | kon
B1 | 35.2 nM | 0.0057 s⁻¹ | 161900 ± 1160 M⁻¹ s⁻¹
B2 | 0.303 nM | 0.000105 s⁻¹ | 347000 ± 1890 M⁻¹ s⁻¹
B3 | 0.814 nM | 0.000321 s⁻¹ | 394600 ± 1740 M⁻¹ s⁻¹
B4 | 3.73 nM |  | 

Molecular target: T3, fHbp m002335
Experiment: BLI
Details: both partners purified

Binder | Kd | koff | kon
B1 | 0.235 nM | 8.01e-05 s⁻¹ | 340700 ± 1750 M⁻¹ s⁻¹
B2 | 0.137 nM | 0.000102 s⁻¹ | 744000 ± 3230 M⁻¹ s⁻¹
B3 | 5.08 nM | 0.00109 s⁻¹ | 214100 ± 1500 M⁻¹ s⁻¹
B4 | 0.883 nM |  | 

Molecular target: T4, fHbp m002252
Experiment: BLI
Details: both partners purified

Binder | Kd | koff | kon
B1 | 0.269 nM | 4.04e-05 s⁻¹ | 150400 ± 1270 M⁻¹ s⁻¹
B2 | 0.133 nM | 4.06e-05 s⁻¹ | 304600 ± 2710 M⁻¹ s⁻¹
B3 | 1.27 nM | 0.000415 s⁻¹ | 327400 ± 2090 M⁻¹ s⁻¹
B4 | 5.07 nM |  | 

Molecular target: T5, fHbp m001691
Experiment: BLI
Details: both partners purified

Binder | Kd | koff | kon
B1 | 34 nM | 0.00857 s⁻¹ | 252000 ± 2680 M⁻¹ s⁻¹
B2 | 1.01 nM | 0.000364 s⁻¹ | 361600 ± 1550 M⁻¹ s⁻¹
B3 | 3.1 nM | 0.000731 s⁻¹ | 235300 ± 1280 M⁻¹ s⁻¹
B4 | 0.838 nM |  | 

Molecular target: T6, fHbp m002416
Experiment: BLI
Details: both partners purified

Binder | koff | kon
B1 | 5.89e-05 s⁻¹ | 201100 ± 1150 M⁻¹ s⁻¹
B2 | 0.000104 s⁻¹ | 322000 ± 2420 M⁻¹ s⁻¹
B3 | 0.00113 s⁻¹ | 296100 ± 925 M⁻¹ s⁻¹

Molecular target: T7, fHbp m002420
Experiment: BLI
Details: both partners purified

Binder | Kd | koff | kon
B1 | 70.4 nM | 0.02143 ± 0.00013 s⁻¹ | 304000 ± 6160 M⁻¹ s⁻¹
B2 | 0.285 nM | 0.000154 s⁻¹ | 542300 ± 2290 M⁻¹ s⁻¹
B3 | 2.01 nM | 0.000887 s⁻¹ | 441000 ± 4480 M⁻¹ s⁻¹
B4 | 0.256 nM |  | 

Molecular target: T8, fHbp m001929
Experiment: BLI
Details: both partners purified

Binder | Kd | koff | kon
B1 | 45.9 nM | 0.00802 s⁻¹ | 175000 ± 4560 M⁻¹ s⁻¹
B2 | 0.235 nM | 9.11e-05 s⁻¹ | 387500 ± 2190 M⁻¹ s⁻¹
B3 | 2.63 nM | 0.000635 s⁻¹ | 242000 ± 2590 M⁻¹ s⁻¹
B4 | 0.347 nM |  | 

Molecular target: T9, fHbp m001935
Experiment: BLI
Details: both partners purified

Binder | Kd | koff | kon
B1 | 18.9 nM | 0.00626 s⁻¹ | 330500 ± 3080 M⁻¹ s⁻¹
B2 | 0.131 nM | 5.4e-05 s⁻¹ | 412500 ± 2300 M⁻¹ s⁻¹
B3 | 2.34 nM | 0.000973 s⁻¹ | 415300 ± 2100 M⁻¹ s⁻¹
B4 | 0.401 nM |  | 
